Results on one substance are retold here after publication PMC3828182.

Test [1] concerns the target FLAG-tagged HPV51 chimera 5 L2 (Ch5L2-FLAG) (human papillomavirus type 51, Ma strain | human papillomavirus type 51, Nu strain) (UniProt P26539).
In test [2] the target is FLAG-tagged HPV51 chimera 4 L2 (Ch4L2-FLAG) (human papillomavirus type 51, Ma strain | human papillomavirus type 51, Nu strain) (UniProt P26539).

For the substance “transport protein particle complex subunit 8 (TRAPPC8) (from UniProt Q9Y2L5 1-1435) (natural protein)”, the percent of HeLa cells GFP-positive by flow cytometry after inoculation with HPV51 PsV containing the (untagged) Ch5L2 and a GFP-expression plasmid in test [1] came to 80%. In addition, in test [2], the percent of HeLa cells GFP-positive by flow cytometry after inoculation with HPV51 PsV containing the (untagged) Ch4L2 and a GFP-expression plasmid came to 4%.
